These are literature values, as cited in publication PMC8920573.

What is called Kd is the free concentration of one partner at which half of the binding sites on the other are occupied at equilibrium, for simple one-to-one binding.

This series concerns the target SARS-CoV main protease main protease (Severe acute respiratory syndrome coronavirus) (UniProt P0C6X7).

For the substance “SARS-CoV main protease main protease (from UniProt P0C6X7)”, the Kd is 2.5 µM.
